Measured values published in US20210122814A1 (SCHOLAR ROCK, published 2021).

Assays:
[1] = target: T1, recombinant human GARP-proTGFβ1 complex (human, UniProt P01137 30-390; Q14392 20-627); assay: MSD-SET (solution equilibrium titration), % free antigen against Ab6 concentration
T1 construct: also called hGARP-proTGFβ1; hGARP
Protocol: (§1) MSD-SET assays were performed to measure affinities of the antibodies at equilibrium. Briefly, each test antibody was diluted 3-5 fold and samples were mixed with biotinylated antigen in a 48-well dish. The SET samples were equilibrated for 20-24 hours at room temperature. Meanwhile, a capture plate was coated with IgG (20 nM) and incubated overnight at 4° C. or 30 minutes at room temperature, followed by a blocking step with 5% BSA. After the capture plate was washed three times, SET samples were added and incubated for 150 seconds. The plate was washed once to remove unbound complexes. 250 ng/ml SA-Sulfotag was added then washed 3 times. 2× Read Buffer was added, and signals from the labeled bound complexes were read with the use of QuickPlex™ SQ 120 instrument.
(§2) As an example, MSD standard plates (MSD) were coated with a 20 nM solution of monoclonal antibody in PBS for 30 min at room temperature or overnight at 4° C. […] After 20-24 hours of equilibration, the antibody-coated plate was blocked with Blocking Buffer A (MSD) for 30 minutes at room temperature and washed with wash buffer (PBS, 0.1% BSA, 0.05% Tween-20) before adding the equilibrated antibody-antigen complexes to the plate for exactly 2.5 minutes. […] After washing with wash buffer, plates were read in MSD read buffer (MSD) using the MESO QuickPlex SQ 120 (MSD). […]

[2] = target: T2, recombinant human LRRC33-proTGFβ1 complex (human, UniProt P01137 30-390; Q86YC3 19-650); assay: as above
T2 construct: also called hLRRC33-proTGFβ1; hLRRC33
T2 sequence (P01137 30-390 limits assumed, chain 1 of 2): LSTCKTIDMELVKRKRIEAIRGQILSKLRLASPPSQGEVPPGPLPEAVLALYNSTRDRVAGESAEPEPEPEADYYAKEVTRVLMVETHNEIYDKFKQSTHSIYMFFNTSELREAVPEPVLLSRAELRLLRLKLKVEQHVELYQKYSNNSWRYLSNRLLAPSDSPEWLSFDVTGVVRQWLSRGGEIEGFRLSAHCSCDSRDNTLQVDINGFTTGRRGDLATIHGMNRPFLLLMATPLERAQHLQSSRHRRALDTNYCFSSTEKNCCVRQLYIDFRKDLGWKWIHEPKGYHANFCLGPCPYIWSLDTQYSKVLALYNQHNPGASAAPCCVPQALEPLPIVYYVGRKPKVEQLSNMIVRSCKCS
T2 sequence (Q86YC3 other isoform, or with tags, fused parts or gaps limits assumed, chain 2 of 2): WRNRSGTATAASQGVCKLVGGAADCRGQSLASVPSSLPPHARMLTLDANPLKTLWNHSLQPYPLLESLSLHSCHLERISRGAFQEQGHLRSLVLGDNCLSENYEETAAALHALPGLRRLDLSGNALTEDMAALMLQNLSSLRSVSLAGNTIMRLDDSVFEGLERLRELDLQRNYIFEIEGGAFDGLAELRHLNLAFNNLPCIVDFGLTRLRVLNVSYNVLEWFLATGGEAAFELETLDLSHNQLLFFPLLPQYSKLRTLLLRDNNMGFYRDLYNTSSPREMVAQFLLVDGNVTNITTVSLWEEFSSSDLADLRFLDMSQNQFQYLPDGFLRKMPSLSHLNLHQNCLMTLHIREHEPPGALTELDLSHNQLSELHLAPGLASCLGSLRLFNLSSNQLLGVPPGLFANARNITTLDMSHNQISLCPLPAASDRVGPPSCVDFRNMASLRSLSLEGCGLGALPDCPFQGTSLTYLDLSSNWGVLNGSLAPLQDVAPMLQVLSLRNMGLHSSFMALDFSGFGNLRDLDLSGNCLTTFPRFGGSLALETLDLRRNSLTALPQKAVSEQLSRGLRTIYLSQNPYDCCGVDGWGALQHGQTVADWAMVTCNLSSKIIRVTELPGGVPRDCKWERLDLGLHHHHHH
Protocol: as §1, §2

LTBP:proTGFβ1 = LTBP:proTGFβ1 (human); assay: cell-based or functional assay

T1 sequence (P01137 30-390, chain 1 of 2): as the sequence (P01137 30-390 limits assumed, chain 1 of 2) above
T1 sequence (Q14392 20-627, chain 2 of 2): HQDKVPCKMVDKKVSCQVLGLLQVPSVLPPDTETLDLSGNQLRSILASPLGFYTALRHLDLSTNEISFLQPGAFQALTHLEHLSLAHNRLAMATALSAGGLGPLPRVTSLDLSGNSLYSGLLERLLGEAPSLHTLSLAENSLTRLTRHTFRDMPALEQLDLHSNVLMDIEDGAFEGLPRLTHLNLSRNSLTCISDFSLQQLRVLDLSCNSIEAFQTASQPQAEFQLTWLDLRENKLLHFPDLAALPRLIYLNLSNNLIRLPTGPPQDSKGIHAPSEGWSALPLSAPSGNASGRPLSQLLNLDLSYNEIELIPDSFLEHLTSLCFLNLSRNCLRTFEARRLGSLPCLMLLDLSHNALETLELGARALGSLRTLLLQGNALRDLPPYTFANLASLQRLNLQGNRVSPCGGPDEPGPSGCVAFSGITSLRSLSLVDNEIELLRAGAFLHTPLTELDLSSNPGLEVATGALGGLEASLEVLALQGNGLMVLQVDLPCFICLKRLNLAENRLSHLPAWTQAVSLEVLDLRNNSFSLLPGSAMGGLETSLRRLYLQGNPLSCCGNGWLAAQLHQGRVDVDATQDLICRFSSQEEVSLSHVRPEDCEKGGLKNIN

B1: Ab6 (antibody, V domains shown)
VH: EVQLVESGGGLVQPGGSLRLSCTASGFTFSSFSMDWVRQAPGKGLEWVSYISPSADTIYYADSVKGRFTISRDNAKNTLYLQMNSLRAEDTAVYYCARGVLDYGDMLMPWGQGTLVTVSS
VL: DIQMTQSPSSLSASVGDRVTITCQASQDITNYLNWYQQKPGKAPKLLIYDASNLETGVPSRFSGSGSGTDFTFTISSLQPEDIATYYCQQADNHPPWTFGGGTKVEIKR
IC50 (read off the curve) [1]: ~0.03 nM
IC50 (read off the curve) [2]: ~0.06 nM
IC50 (read off the curve) (LTBP:proTGFβ1): ~1 nM
